Experimental data reported in patent publication US20210079060A1.

Tests used:
[1] = target: yeast-displayed wild-type CD19 (extracellular domain) (human) (UniProt P15391); assay: flow cytometry, yeast display, Aga2p-CD19, 22 °C pre-treat; mAb binding against CD19 per yeast
[2] = target: yeast-displayed wild-type CD19 (extracellular domain) (human) (UniProt P15391); assay: flow cytometry, yeast display, CD19-Aga2p, 22 °C pre-treat; mAb binding against CD19 per yeast
[3] = target: CD19-FnEGFR (FIG. 15A); assay: flow cytometry, yeast display, left panel; FMC63 + GaM-A647 (FL4-A) against biotin-EGFR + strep-A488 (FL1-A)
[4] = target: CD19-scFvHER2 (FIG. 15A); assay: flow cytometry, yeast display, right panel; FMC63 + GaM-A647 (FL4-A) against biotin-HER2 + strep-A488 (FL1-A)
[5] = target: CD19-FnEGFR (FIG. 15A); assay: flow cytometry, yeast display, left panel; FMC63 + GaM-A647 (FL4-A) against biotin-EGFR + strep-A488 (FL1-A); Q8 64.9 also printed
[6] = target: CD19-scFvHER2 (FIG. 15A); assay: flow cytometry, yeast display, right panel; FMC63 + GaM-A647 (FL4-A) against biotin-HER2 + strep-A488 (FL1-A); Q8 30.1 also printed

Sequence of yeast-displayed wild-type CD19 (extracellular domain) (human) (P15391 20-291): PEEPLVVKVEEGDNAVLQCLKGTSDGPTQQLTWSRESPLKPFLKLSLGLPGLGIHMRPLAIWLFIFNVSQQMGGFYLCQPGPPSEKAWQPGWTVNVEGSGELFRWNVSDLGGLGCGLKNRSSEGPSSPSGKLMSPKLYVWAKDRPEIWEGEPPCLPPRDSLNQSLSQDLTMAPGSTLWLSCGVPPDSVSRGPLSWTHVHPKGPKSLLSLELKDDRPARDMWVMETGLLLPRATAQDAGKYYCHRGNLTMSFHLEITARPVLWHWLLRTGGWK

Row | percent of yeast in gate R7 (CD19-displaying, no mAb signal; taken as the lower dashed gate) [1] | percent of yeast in gate R8 (CD19-displaying, no mAb signal; taken as the lower dashed gate) [2] | Q6, percent of events positive for FMC63 and biotin-target [3] | Q6, percent of events positive for FMC63 and biotin-target [4] | Q5, percent of events positive for FMC63 and negative for biotin-target [5] | Q5, percent of events positive for FMC63 and negative for biotin-target [6] | Substance
1 | 37.2% | 51.6% |  |  |  |  | 4G7 (antibody)
2 |  |  | 0.034 | 35.1 | 35.1 | 31.8 | FMC63 (antibody)
